Here are results for five sequences from the DeepSol protein solubility set.

The nature of this data set: soluble on expression in E. coli; label from the status in PepcDB or PDB records.
With “MPASQIKSAVTSPLLPQSPSLFEKYPRPHKKLKQLHWEKLDCTDNSIWGTGKAEKFADDLYEKGVLADLEKAFAAREIKSLASKRKEDLQKITFLSRDISQQFGINLHMYSSLSVADLVKKILNCDRDFLQTPSVVEFLSKSEIIEVSVNLARNYAPYSTDWEGVRNLEDAKPPEKDPNDLQRADQIYLQLMVNLESYWGSRMRALTVVTSYEREYNELLAKLRKVDKAVSALQESDNLRNVFNVILAVGNFMNDTSKQAQGFKLSTLQRLTFIKDTTNSMTFLNYVEKIVRLNYPSFNDFLSELEPVLDVVKVSIEQLVNDCKDFSQSIVNVERSVEIGNLSDSSKFHPLDKVLIKTLPVLPEARKKGDLLEDEVKLTIMEFESLMHTYGEDSGDKFAKISFFKKFADFINEYKKAQAQNLAAEEEERLYIKHKKIVEEQQK”, the “soluble on expression in E. coli” value was “soluble”.

Take “MPCSFAPGFLALTVAIHPGTTAQPSQQSPRAFPFFRPVLAQLMKHRVAQESTRRWLDRIIQIIKYAYCQKLRRHFCQATLWKMIQLIVNGQSQLVPSPDSGTDSGTTNDARLNIRQLLEHMGLQGKRIAVERNGEIVPRSQFDQPMLASGDKLEIVVAVGGGLEHHHHHH”: the “soluble on expression in E. coli” value is listed as “not soluble”.

For the sequence “MPDAVVIGAGPNGLVAANLLADAGWSVTVLEEQDEPGGAVRHDNGVDPDFTTDLFSSFYPLAAASPVLAGLHLEREGLRWSHAPRVLAHPLSDGRCAVLGRDLDDTAASLDTFADGDGAAWRELHDVWERLRPDLLDALFTPFPPVRAGARLAARLRAGGGLRLARSLVLPVRRLGEEEFRGEGGRLLLAGNALHADLAPEAAGSGGFGWLMSMLGQTYGFPVPVGGSGALTSALTQRLHRRGGVLRCGQRVSEVVVRQGRAVAVRTAGGETVPARRAVLADVSVPALYGTLVGSAHLPAQVLADLRRFQWDFATFKVDWALDGPVPWQADAASAAGTVHLADGVDELTRFAAQIAMRQVPDRPFALFGQMTTADATRSPEGTEAAWAYTHVPHRIAGDAGDAGLAGTWDAREQELMADRVERQVERFAPGFRSLIRARRILAPPTLQSLNANLYGGAINGGTTALHQQLVFRPIPGTGRPETPVANLFLASAGAHPGGGVHGAPGANAARAALRKHLPSGLTRAQRLLTRRNRKGERDTGFGGLEHHHHHH”, the “soluble on expression in E. coli” value is “not soluble”.

In the case of “MPDEAVDGSTPDQGKKNNNGRGRGQGSGGNRGRGGSTANNNASRRPNPARQNQSSRQPTKVDMKKYERMISAAHTNFSDIPCGQKSIDCDICCKKNDVFGIGSCRHPVCAECVIRMRILGNSKTCPVCRSDIDILSFCTTDDDLANVPLSFKKTAHPDEDRYDIRFSNKIAGTKYEKYLAHVCKICKTDDGERLEFPSFMSLRQHMASRHEQSYCHICTDNLNLFSRERKTYTRDQLQRHMRSGDFDDKSFKGHPQCLFCEQKFLDEENRYRHLRKDHFFCQFCESDGTMTNVFFGKHDGLKKHYKEHHYICETEECREMGIAFANKFELDLHRANEHAERRNLIELGFGQRPSDPGRPIGRGRGLRSNEPPPPPVPRERIAVVQRQVETNPQSDPSQFTTVRSAQSKGVFTSTRSAYTSNQQEFPSLAPQAPPPNVRSSEFPRLNKANKPAAPAAPAVVDHFPSLGDSSSSSSAPPLRIKVPPLVKKRQPPPPAPAPQKAKASSARQNAPREEDDEYISRRDVPQAVVKVNNSLLRFDTVDDRVIPQNAKSNIQMIQRVDQKSAAESSSSAPSSGRLDFPALPAASAPMMPANSSWLNSKNSKIKSGVISSVSVPANYSKATQNKNKKKNKISVPKTEVWSSLGPPPDSAVASVPVETWQDIPLSKEAQLEKEKRERKEDWARKKAEIQARVAAASKDKSNEVDSDSEPEPARPITPPVHHSNIEKSESSEWTMANSKSGDSLKNAQLMANQKKNKKNKNNMEIPSANKVPSSQSSIVPSAPKVDSLIVEKVVAKTEPKNDENQDKPDLWNMPKLPSMTSMFSSFSLSGMFGMGTSYSDSSSMAAPPPGLENVVLTPPPGLGFPSPKSDDISFASAPILSHDDVKAKRERLEAEKQKNQKEAEKEDDGWVTTSKPKNNKKNNKK”, the “soluble on expression in E. coli” value is reported as “not soluble”.

As to “MPDGQRVTKRSEDSRYFTVQPADTPGMANAQGYLPAHDAAGFDKRLDAIAATVCPNDPRTPDQRRADALGALGRYRDTLDCQCGREDCTAVAERDAVNNAMIHVLAEQSTLDGGNEPGYLPGFGMLPAHMVREVAKTATTKPVTIPKDKAQSGYRPNAELTEFIRWRDLTCRFPGCDAPAMAADIDHTRPLEHHHHHH”, the “soluble on expression in E. coli” value is “soluble”.
